The values that follow come from article PMC5207153, “Differential Receptor Binding and Regulatory Mechanisms for the Lymphangiogenic Growth Factors Vascular Endothelial Growth Factor (VEGF)-C and -D*^([image sbox.jpg])” (The Journal of Biological Chemistry, 2016).

To fix the notation:
B1: VEGF-DΔNΔC [human] / Recombinant human VEGFR-3-Fc chimera [human] (parent complex)
chain 1: FYDIETLKVIDEEWQRTQCSPRETCVEVASELGKSTNTFFKPPCVNVFRCGGCCNEESLICMNTSTSYISKQLFEISVPLTSVPELVPVKVANHTGCKCLPTAPRHPYS
chain 2: YSMTPPTLNITEESHVIDTGDSLSISCRGQHPLEWAWPGAQEAPATGDKDSEDTGVVRDCEGTDARPYCKVLLLHEVHANDTGSYVCYYKYIKARIEGTTAASSYVFVRDFEQPFINKPDTLLVNRKDAMWVPCLVSIPGLNVTLRSQSSVLWPDGQEVVWDDRRGMLVSTPLLHDALYLQCETTWGDQDFLSNPFLVHITGNELYDIQLLPRKSLELLVGEKLVLNCTVWAEFNSGVTFDWDYPGKQAERGKWVPERRSQQTHTELSSILTIHNVSQHDLGSYVCKANNGIQRFRESTEVIVHENPFISVEWLKGPILEATAGDELVKLPVKLAAYPPPEFQWYKDGKALSGRHSPHALVLKEVTEASTGTYTLALWNSAAGLRRNISLELVVNVPPQIHEKEASSPSIYSRHSRQALTCTAYGVPLPLSIQWHWRPWTPCKMFAQRSLRRRQQQDLMPQCRDWRAVTTQDAVNPIESLDTWTEFVEGKNKTVSKLVIQNANVSAMYKCVVSNKVGQDERLIYFYVTTIPDGFTIESKPSEELLEGQPVLLSCQADSYKYEHLRWYRLNLSTLHDAHGNPLLLDCKNVHLFATPLAASLEEVAPGARHATLSLSIPRVAPEHEGHYVCEVQDRRSHDKHCHKKYLSVQALEAPRLTQNLTDLLVNVSDSLEMQCLVAGAHAPSIVWYKDERLLEEKSGVDLADSNQKLSIQRVREEDAGRYLCSVCNAKGCVNSSASVAVEGSEDKGSME
B2: VEGF-DΔNΔC [human] / Recombinant human VEGFR-2-Fc chimera [human] (parent complex)
chain 1: B1 chain 1
chain 2: ASVGLPSVSLDLPRLSIQKDILTIKANTTLQITCRGQRDLDWLWPNNQSGSEQRVEVTECSDGLFCKTLTIPKVIGNDTGAYKCFYRETDLASVIYVYVQDYRSPFIASVSDQHGVVYITENKNKTVVIPCLGSISNLNVSLCARYPEKRFVPDGNRISWDSKKGFTIPSYMISYAGMVFCEAKINDESYQSIMYIVVVVGYRIYDVVLSPSHGIELSVGEKLVLNCTARTELNVGIDFNWEYPSSKHQHKKLVNRDLKTQSGSEMKKFLSTLTIDGVTRSDQGLYTCAASSGLMTKKNSTFVRVHEKPFVAFGSGMESLVEATVGERVRIPAKYLGYPPPEIKWYKNGIPLESNHTIKAGHVLTIMEVSERDTGNYTVILTNPISKEKQSHVVSLVVYVPPQIGEKSLISPVDSYQYGTTQTLTCTVYAIPPPHHIHWYWQLEEECANEPSQAVSVTNPYPCEEWRSVEDFQGGNKIEVNKNQFALIEGKNKTVSTLVIQAANVSALYKCEAVNKVGRGERVISFHVTRGPEITLQPDMQPTEQESVSLWCTADRSTFENLTWYKLGPQPLPIHVGELPTPVCKNLDTLWKLNATMFSNSTNDILIMELKNASLQDQGDYVCLAQDRKTKKRHCVVRQLTVLERVAPTITGNLENQTTSIGESIEVSCTASGNPPPQIMWFKDNETLVEDSGIVLKDGNRNLTIRRVRKEDEGLYTCQACSVLGCAKVEAFFIIEGAQEKTNLE

One test covers variants of B1. Kind of test: ELISA; The same amount of each VEGF-DΔNΔC variant was used; assays conducted three times; parent: 100; read off a plot.
Turning to chain 1 FYAIETLKVIDEEWQRTQCSPRETCVEVASELGKSTNTFFKPPCVNVFRCGGCCNEESLICMNTSTSYISKQLFEISVPLTSVPELVPVKVANHTGCKCLPTAPRHPYS [chain 1 D3A], the percent of parent is ~96%. Still for that read-out and setting: to chain 1 FYDIETLKVIDEEWARTQCSPRETCVEVASELGKSTNTFFKPPCVNVFRCGGCCNEESLICMNTSTSYISKQLFEISVPLTSVPELVPVKVANHTGCKCLPTAPRHPYS [chain 1 Q15A] belongs ~110%; to chain 1 FYDIETLAVIDEEWQRTQCSPRETCVEVASELGKSTNTFFKPPCVNVFRCGGCCNEESLICMNTSTSYISKQLFEISVPLTSVPELVPVKVANHTGCKCLPTAPRHPYS [chain 1 K8A], ~87%. The same measure, in the same setting: to chain 1 FYDIETLKAIDEEWQRTQCSPRETCVEVASELGKSTNTFFKPPCVNVFRCGGCCNEESLICMNTSTSYISKQLFEISVPLTSVPELVPVKVANHTGCKCLPTAPRHPYS [chain 1 V9A] belongs ~100%. chain 1 FYDIETLKVADEEWQRTQCSPRETCVEVASELGKSTNTFFKPPCVNVFRCGGCCNEESLICMNTSTSYISKQLFEISVPLTSVPELVPVKVANHTGCKCLPTAPRHPYS [chain 1 I10A]: the percent of parent was ~9%. On the same count and under the same terms, to chain 1 FYDIETAKVIDEEWQRTQCSPRETCVEVASELGKSTNTFFKPPCVNVFRCGGCCNEESLICMNTSTSYISKQLFEISVPLTSVPELVPVKVANHTGCKCLPTAPRHPYS [chain 1 L7A] belongs ~3%; to chain 1 FYDIETLKVIDEEWQATQCSPRETCVEVASELGKSTNTFFKPPCVNVFRCGGCCNEESLICMNTSTSYISKQLFEISVPLTSVPELVPVKVANHTGCKCLPTAPRHPYS [chain 1 R16A], ~100%. As for chain 1 FYDAETLKVIDEEWQRTQCSPRETCVEVASELGKSTNTFFKPPCVNVFRCGGCCNEESLICMNTSTSYISKQLFEISVPLTSVPELVPVKVANHTGCKCLPTAPRHPYS [chain 1 I4A], the percent of parent was ~99%. The same measure, in the same setting: with chain 1 FYDIATLKVIDEEWQRTQCSPRETCVEVASELGKSTNTFFKPPCVNVFRCGGCCNEESLICMNTSTSYISKQLFEISVPLTSVPELVPVKVANHTGCKCLPTAPRHPYS [chain 1 E5A] the figure was ~99%; with chain 1 FYDIETLKVIAEEWQRTQCSPRETCVEVASELGKSTNTFFKPPCVNVFRCGGCCNEESLICMNTSTSYISKQLFEISVPLTSVPELVPVKVANHTGCKCLPTAPRHPYS [chain 1 D11A], ~160%.

As to chain 1 FADIETLKVIDEEWQRTQCSPRETCVEVASELGKSTNTFFKPPCVNVFRCGGCCNEESLICMNTSTSYISKQLFEISVPLTSVPELVPVKVANHTGCKCLPTAPRHPYS [chain 1 Y2A], the percent of parent was ~23%. The same measure, in the same setting: with chain 1 FYDIETLKVIDEEAQRTQCSPRETCVEVASELGKSTNTFFKPPCVNVFRCGGCCNEESLICMNTSTSYISKQLFEISVPLTSVPELVPVKVANHTGCKCLPTAPRHPYS [chain 1 W14A] the figure was ~72%; with chain 1 AYDIETLKVIDEEWQRTQCSPRETCVEVASELGKSTNTFFKPPCVNVFRCGGCCNEESLICMNTSTSYISKQLFEISVPLTSVPELVPVKVANHTGCKCLPTAPRHPYS [chain 1 F1A], ~72%. The same measure, in the same setting: with chain 1 FYDIETLKVIDEAWQRTQCSPRETCVEVASELGKSTNTFFKPPCVNVFRCGGCCNEESLICMNTSTSYISKQLFEISVPLTSVPELVPVKVANHTGCKCLPTAPRHPYS [chain 1 E13A] the figure was ~13%; with chain 1 FYDIETLKVIDAEWQRTQCSPRETCVEVASELGKSTNTFFKPPCVNVFRCGGCCNEESLICMNTSTSYISKQLFEISVPLTSVPELVPVKVANHTGCKCLPTAPRHPYS [chain 1 E12A], ~100%; with chain 1 FYDIEALKVIDEEWQRTQCSPRETCVEVASELGKSTNTFFKPPCVNVFRCGGCCNEESLICMNTSTSYISKQLFEISVPLTSVPELVPVKVANHTGCKCLPTAPRHPYS [chain 1 T6A], ~97%.

In another test the parent is B2. The test is described as above.
As to chain 1 FYDIETLKVIDEAWQRTQCSPRETCVEVASELGKSTNTFFKPPCVNVFRCGGCCNEESLICMNTSTSYISKQLFEISVPLTSVPELVPVKVANHTGCKCLPTAPRHPYS [chain 1 E13A], the percent of parent is ~14%. The same measure, in the same setting: to chain 1 FYDIETLKAIDEEWQRTQCSPRETCVEVASELGKSTNTFFKPPCVNVFRCGGCCNEESLICMNTSTSYISKQLFEISVPLTSVPELVPVKVANHTGCKCLPTAPRHPYS [chain 1 V9A] belongs ~110%; to chain 1 FADIETLKVIDEEWQRTQCSPRETCVEVASELGKSTNTFFKPPCVNVFRCGGCCNEESLICMNTSTSYISKQLFEISVPLTSVPELVPVKVANHTGCKCLPTAPRHPYS [chain 1 Y2A], ~86%; to chain 1 FYDIETLKVIDEEWQATQCSPRETCVEVASELGKSTNTFFKPPCVNVFRCGGCCNEESLICMNTSTSYISKQLFEISVPLTSVPELVPVKVANHTGCKCLPTAPRHPYS [chain 1 R16A], ~110%.

chain 1 FYDIETLKVIAEEWQRTQCSPRETCVEVASELGKSTNTFFKPPCVNVFRCGGCCNEESLICMNTSTSYISKQLFEISVPLTSVPELVPVKVANHTGCKCLPTAPRHPYS [chain 1 D11A]: the percent of parent is ~100%.

Consider chain 1 FYDIEALKVIDEEWQRTQCSPRETCVEVASELGKSTNTFFKPPCVNVFRCGGCCNEESLICMNTSTSYISKQLFEISVPLTSVPELVPVKVANHTGCKCLPTAPRHPYS [chain 1 T6A], for which the percent of parent was ~100%. As for chain 1 FYDIETLAVIDEEWQRTQCSPRETCVEVASELGKSTNTFFKPPCVNVFRCGGCCNEESLICMNTSTSYISKQLFEISVPLTSVPELVPVKVANHTGCKCLPTAPRHPYS [chain 1 K8A], the percent of parent is ~88%.

For the variant chain 1 FYDIATLKVIDEEWQRTQCSPRETCVEVASELGKSTNTFFKPPCVNVFRCGGCCNEESLICMNTSTSYISKQLFEISVPLTSVPELVPVKVANHTGCKCLPTAPRHPYS [chain 1 E5A], the percent of parent was ~99%.

As for chain 1 FYDIETAKVIDEEWQRTQCSPRETCVEVASELGKSTNTFFKPPCVNVFRCGGCCNEESLICMNTSTSYISKQLFEISVPLTSVPELVPVKVANHTGCKCLPTAPRHPYS [chain 1 L7A], the percent of parent was ~19%.

As to chain 1 FYDAETLKVIDEEWQRTQCSPRETCVEVASELGKSTNTFFKPPCVNVFRCGGCCNEESLICMNTSTSYISKQLFEISVPLTSVPELVPVKVANHTGCKCLPTAPRHPYS [chain 1 I4A], the percent of parent is ~100%.

In the case of chain 1 FYDIETLKVIDEEAQRTQCSPRETCVEVASELGKSTNTFFKPPCVNVFRCGGCCNEESLICMNTSTSYISKQLFEISVPLTSVPELVPVKVANHTGCKCLPTAPRHPYS [chain 1 W14A], the percent of parent was ~62%. Turning to chain 1 FYDIETLKVIDEEWARTQCSPRETCVEVASELGKSTNTFFKPPCVNVFRCGGCCNEESLICMNTSTSYISKQLFEISVPLTSVPELVPVKVANHTGCKCLPTAPRHPYS [chain 1 Q15A], the percent of parent was ~110%.

Take chain 1 FYAIETLKVIDEEWQRTQCSPRETCVEVASELGKSTNTFFKPPCVNVFRCGGCCNEESLICMNTSTSYISKQLFEISVPLTSVPELVPVKVANHTGCKCLPTAPRHPYS [chain 1 D3A]: the percent of parent was ~95%. On the same count and under the same terms, with chain 1 AYDIETLKVIDEEWQRTQCSPRETCVEVASELGKSTNTFFKPPCVNVFRCGGCCNEESLICMNTSTSYISKQLFEISVPLTSVPELVPVKVANHTGCKCLPTAPRHPYS [chain 1 F1A] the figure was ~89%. On the same count and under the same terms, to chain 1 FYDIETLKVADEEWQRTQCSPRETCVEVASELGKSTNTFFKPPCVNVFRCGGCCNEESLICMNTSTSYISKQLFEISVPLTSVPELVPVKVANHTGCKCLPTAPRHPYS [chain 1 I10A] belongs ~20%. Same read-out and setting: to chain 1 FYDIETLKVIDAEWQRTQCSPRETCVEVASELGKSTNTFFKPPCVNVFRCGGCCNEESLICMNTSTSYISKQLFEISVPLTSVPELVPVKVANHTGCKCLPTAPRHPYS [chain 1 E12A] belongs ~100%.
